# Results published in the nanobody polyreactivity screen of Harvey et al. (2022).
# Experiment: yeast display, Sf9 membrane polyspecificity reagent, FACS + sequencing; frameworks hold sequencing errors
# How it was run: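 Nanobodies came from a synthetic yeast display library in Saccharomyces cerevisiae BJ5465, induced with galactose for 36–48 hours and stained for 1 hour at 4 °C with 10% biotinylated, detergent-solubilized Sf9 membrane reagent. Cells were enriched on streptavidin microbeads and then FACS-sorted, with low and high (top ~1%) gates set on anti-HA fluorescence for expression and streptavidin fluorescence for reagent binding. Each polyreactivity label reflects the gate a clone came from. Genes were amplified by colony PCR, sequenced by MiSeq 2 × 250 and filtered by CDR length.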
row,Sequence,polyreactivity (PSR sort gate)
1,QVQLVESGGGLVQAGGSLRLSCAASGFIFNYYAMGWYIQAPGKERELVAAISTNGGSTYYADSVKGRFTISRDNAKNTVYLQMNSLKPEDTAVYYCAARSYGVSGRYYRYTFGMDYWGQGTQVTVSS,high polyreactivity
2,QVQLVESGGGLVQAGGSLRLSCAASGFIFNYYAMGWYRQAPGKERELVAISRGGSTNYADSVKGRFTISRDNAKNTVYLQMNSLKPEDTAVYYCAATKRYASGMYYWGQGTQVTVSS,high polyreactivity
3,QVQLVESGGGLVQAGGSLRLSCAASGFIFPDNVMGWYRQAPGKERELVAAISRSGGSTYYADSVKGRFTISRDNAKNTVYLQMNSLKPEDTAVYYCAVKFVRYRQGIVLYDYWGQGTQVTVSS,high polyreactivity
4,QVQLVESGGGLVQAGGSLRLSCAASGFIFPEYAMGWYRQAPGKERELVAAINWSGGNTYYADSVKGRFTISRDNAKNTVYLQMNSLKPEDTAVYYCNVDDWVTDDDYWGQGTQVTVSS,low polyreactivity
5,QVQLVESGGGLVQAGGSLRLSCAASGFIFPFYAMGWYRQAPGKERELGASITWSGSTYADSVKGRFTISRDNAKNTVYLQMNSLKPEDTAVYYCNTDPRSVVGWYAYWGQGTQVTVSS,low polyreactivity
6,QVQLVESGGGLVQAGGSLRLSCAASGFIFPFYAMGWYRQAPGKERELVAGIRGVGSTNYADSVKGRFTISRDNAKNTVYLQMNSLKPEDTAVYYCNKELYDFKDRNLTAFLLRIFDSWGQGTQVTVSS,low polyreactivity
7,QVQLVESGGGLVQAGGSLRLSCAASGFIFPGNARGWYRQAPGKERELVAAISNSGSRTYYADSVKGRFTISRDNAKNTVYLQMNSLKPEDTAVYYCAALNYHKFAHKYDYWGQGTQVTVSS,low polyreactivity
8,QVQLVESGGGLVQAGGSLRLSCAASGFIFPGNTMGWYRQAPGKERELVAAITRSGASTYYADSVKGRFTISRDNAKNTVYLQMNSLKPEDTAVYYCAERYYYGLRYPDYYYWGQGTQVTVSS,high polyreactivity
9,QVQLVESGGGLVQAGGSLRLSCAASGFIFPGNVMGWYIQAPWKERELVAAISSGGGSTYYADSVKGRFTISRDNAKNSVYLQMNSLKPEDTAVYYCAKRTPRKWGQGTQVTVSS,high polyreactivity
10,QVQLVESGGGLVQAGGSLRLSCAASGFIFPGYAMGWYRQAPGKERELVAVISGSGARTYYADSVKGRFTISRDNAKNTVYLQMNSLKPEDTAVYYCATDYCRTRQYRPGDYWGQGTQVTVSS,high polyreactivity
11,QVQLVESGGGLVQAGGSLRLSCAASGFIFPKNAMGWYRQAPGKERELVAAISRSSGNTYYADSVKGRFTISRDNAKNTVYLQMNSLKPEDTAVYYCAASYWPYRGPVGGSKMYYWGQGTQVTVSS,high polyreactivity
12,QVQLVESGGGLVQAGGSLRLSCAASGFIFPNNAMGWYRQAPGKERELVARISYGGGDTHYADSVKGRFTISRDNAKNTVYLERNSLKPEDTAVYYCAVKDGQDDYWGQGTQVTVSS,low polyreactivity
13,QVQLVESGGGLVQAGGSLRLSCAASGFIFPPYDMGWYRQAPGKERELVADITYSDGITYYADSVKGRFTISRDNAMNTVYLQMNSLKPEDTAVYYCNADYSRIGPEVDYWGQGTQVTVSS,low polyreactivity
14,QVQLVESGGGLVQAGGSLRLSCAASGFIFPRYAKGWYRQAPGKERELVAAISKSGGRTYYADSEKGGFTISRDYAKNTFYLQMNSLKPEDTAVYYCADGRISRFSRYYYWGQGTHVTVSS,high polyreactivity
15,QVQLVESGGGLVQAGGSLRLSCAASGFIFPRYAMGWSRQRPGKESELVAAISRSGGITRYADSVKGRFTISRDNAKNTVYLQRNSLKPEDTAVYYCAAYIQGWVTAEWVRDDYWGKGTQVTVSS,high polyreactivity
16,QVQLVESGGGLVQAGGSLRLSCAASGFIFPRYVMGWSRQAPGKERELVAAINSDISTNYADSVKGRFTISRDNAKNTVYLQMNSLKPEDTAVYDCAAERWDDRWEFDYWGQGTQVTVSS,low polyreactivity
17,QVQLVESGGGLVQAGGSLRLSCAASGFIFPSYAMGWYRQAPGKERELVATISKRVATTYYADSVKGRFTISRDNAKNTVYLQMNSLKPEDTAVYYCAAAYRGYARHDYWGQGTQVTVSS,high polyreactivity
18,QVQLVESGGGLVQAGGSLRLSCAASGFIFPTNVMGWYRQAPGKEREFVASITWRGGGTYYADSVKGRFTISRDNAKNTVYVQMNSLKPEDTAVYYCAAGRSWSSYWKYDYWGQGTQVTVSS,low polyreactivity
19,QVQLVESGGGLVQAGGSLRLSCAASGFIFPWYAMGWYRQAPGKERELVAAISSSGGRTYYADSVKGRFTISRDNAKNTVYLQMNSLKPEDTAVYYCNVANGLSQVYRYNYWGQGTQVTVSS,high polyreactivity
20,QVQLVESGGGLVQAGGSLRLSCAASGFIFPYDAMGWYRQAPGKERELVAAITYRDGSTYYADSVKGRFTISRDNAKNTVYLQMNSLKPEDTAVYYCAADRYVYWDLYGYWGQGTQVTVSS,low polyreactivity
21,QVQLVESGGGLVQAGGSLRLSCAASGFIFPYYAMGLYRQAPGKEREMVAAITFSATRTYYADSVKGRFTISRDNAKNTVYLQMNSLKPEDTADYYCKARGGVYGSYFEFNYWGQGSQVTVSS,low polyreactivity

row,Sequence,polyreactivity (PSR sort gate)
1,QVQLVESGGGLVQAGGSLRLSCAASGFIFPYYAMGWYRQAPGKERELVAAISQSGGSTYYADSVKGRFTISRDNAKNTVYLQMNSLKPEDTAVYYCAKYIPSYHDGDYWGQGTQVTVSS,low polyreactivity
2,QVQLVESGGGLVQAGGSLRLSCAASGFIFPYYAMGWYRQAPGKERELVAAITSSGGRTYYADSVKGRFTISRDNAKNTVYFQMNSLKPEDTAVYYCAAYYLTPTDVEYDYWGQGTQVTVSS,high polyreactivity
3,QVQLVESGGGLVQAGGSLRLSCAASGFIFQAYAMGWYRQAPGKERELVAAISSSGGSTYYADSVKGRFTISRDNAKNTVYLQMNSLKPEDTAVYYCAARSRRVSLIRDSYGYWGQGTQVTVSS,high polyreactivity
4,QVQLVESGGGLVQAGGSLRLSCAASGFIFQPYAMGWYRQAPGKERELVAAITSRGGRTYYADSVQGRFTICRDNAKNTVYLQMNSLKPEDTSVYYCNADIYASEYYYWGQGTQVTVSS,low polyreactivity
5,QVQLVESGGGLVQAGGSLRLSCAASGFIFQPYSLGWYRQAPGKERELVAAITSRGGRTYYADSVKGRFTISRDNAKNTVYLQMNSLKPEDTAVYYCNADIYASEYYYWGQGTQVTVSS,low polyreactivity
6,QVQLVESGGGLVQAGGSLRLSCAASGFIFQQNAMGWYIQAPGKERELVAAISRSGGRTYYADSVKGRFTISRDNAKNTVYLQMNSLKPEDSAVYYCATRFYTKAFEYDYWGQGTQVTVSS,high polyreactivity
7,QVQLVESGGGLVQAGGSLRLSCAASGFIFQRYAMGWYRQAPGKERELVAAITRTGGRTYYSDSVKGRFTISRDNAKNTVYLQMNSLKPEDTAVYYCAADRTMSYEYWGQGTKVTVSS,high polyreactivity
8,QVQLVESGGGLVQAGGSLRLSCAASGFIFRAYTMGWYRQAPGKERELVAAITSGSSTNYADSVKGRFTISRDNAKNTVYLQMNSLKPEDTAVYYCNTDWVWLIIEYDYWGQGTQVTVSS,low polyreactivity
9,QVQLVESGGGLVQAGGSLRLSCAASGFIFRDNAMGWYRQAPGKERELVAAISERGGRTYYADSVKGRFTISRDNAKNTVYLQMNSLKPEDTAVYYCAAKTIYDTRGIRHYYWGQGTQVTVSS,high polyreactivity
10,QVQLVESGGGLVQAGGSLRLSCAASGFIFRGNTMGWYRQAPGKERELVAAISASGGSTYYADSVKGRFTISRDNAKNTVYLQMNSLKPEDTAVYYCNVAVIYRSRTYWYGMDYWGQGTQLTVSS,high polyreactivity
11,QVQLVESGGGLVQAGGSLRLSCAASGFIFRGYAMGWYRQAPGKERELVAAISRSGGSTYYADSVKGRFTISRDNAKNTVYLQMNSLKPEDTAVYFCAVALFETGHYYWGQGTQVTVSS,high polyreactivity
12,QVQLVESGGGLVQAGGSLRLSCAASGFIFRGYAMGWYRQAPGKERELVAAISRSGGSTYYADSVKGRFTISRDNAKNTVYLQMNSLKPEDTAVYYCAARSFYSKGYDYWGQGTQVTVSS,high polyreactivity
13,QVQLVESGGGLVQAGGSLRLSCAASGFIFRGYAMGWYRQAPGKERELVAAITYSTGNTYYADSVKGRFTISRDNAKNTVYLQMNSLKPEDTAVYYCNKVVRKFIGGYVYYSGGYWGQGTQVTVSS,low polyreactivity
14,QVQLVESGGGLVQAGGSLRLSCAASGFIFRKYTMGWYRQAPGKERELVATIDSSGGSTYYADSVKGRFTISRDNAKNTVYLQMNSLKPEDTAVYYCNADLRELSPWYWYSGEMDYWGQGTQVTVSS,low polyreactivity
15,QVQLVESGGGLVQAGGSLRLSCAASGFIFRLNAMGWYTQAPGKERELVATITSSGSTSYADSVKGRFTISRDNAKNTVYLQMNSLKPEDTAVYYCAARRLRYRYPLYSRNYWGQGTQVTVSS,high polyreactivity
16,QVQLVESGGGLVQAGGSLRLSCAASGFIFRLYALGWYRQAPGKERELVAAIRSAGSTYYADSVKGRFTISRDNAKNTVYLQMNSLKPEDTPVYYCAARSGHTYYFIGNYWGQGTQVTVSS,high polyreactivity
17,QVQLVESGGGLVQAGGSLRLSCAASGFIFRLYAMGLYRQAPGKERELVAAITTSGDSTYYADSVKGRFTISRDNSKNTFYLQMNCLKPEDTAVYYCAARYYYPPKRGYWGQGSQVTVSS,high polyreactivity
18,QVQLVESGGGLVQAGGSLRLSCAASGFIFRPNAMGWYRQAPGKERELVAAITGRSGSTNYADSVKGRFTISRDNAKNTVYLQMNSLKPEDTAVYYCAARVWQGYYPGYYYWGQGTQVTVSS,high polyreactivity
19,QVQLVESGGGLVQAGGSLRLSCAASGFIFRPYTMGWYRQAPGKERELVAAITSGGSTYYADSVKGRFTISRDNAKNTVYLQMNSLKPEDTAVYYCAARYQLYRRGYDYWGQGTQVTVSS,high polyreactivity
20,QVQLVESGGGLVQAGGSLRLSCAASGFIFRRNAMGWYRQAPGKERELVATISSGVGTYYADSVKGRFTISRDNAKNTVYLQMNSLKPEDTAVYYCATLVHYLYTGYRAYYSYRLDYWGQGTQVTVSS,high polyreactivity
